Legend:
Assay in all cases: Kinase Profiling Assay
Format in all cases: biochemical
Details in all cases: 100 μM
BTK(R28H) (h) = BTK(R28H) (h) (Homo sapiens, UniProt Q06187, R28H)
Procedure, shortened: (§1)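 Radiometric filter-binding format: cationic substrate takes up labeled phosphate from ATP unless the inhibitor peptide blocks the kinase. Substrate bound to an anionic filter, scintillation-counted, normalized to 100% activity control. Duplicates; part of a 266-kinase selectivity panel for MK2 peptides.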

CDK2/cyclinA (h) = molecular target: T1, CDK2/cyclinA (h) (Homo sapiens, UniProt P24941)
T1 construct: purchased Millipore
Procedure, shortened: as §1

CDK6/cyclinD3 (h) = molecular target: T2, CDK6/cyclinD3 (h) (Homo sapiens, UniProt Q00534)
T2 construct: purchased Millipore
Procedure, shortened: as §1

CHK2(I157T) (h) = molecular target: T3, CHK2(I157T) (h) (Homo sapiens, UniProt O96017, I157T)
T3 construct: purchased Millipore
Procedure, shortened: as §1

CHK2(R145W) (h) = molecular target: T4, CHK2(R145W) (h) (Homo sapiens, UniProt O96017, R145W)
T4 construct: purchased Millipore
Procedure, shortened: as §1

CK2 (h) = molecular target: T5, CK2 (h) (Homo sapiens, UniProt P68400)
T5 construct: purchased Millipore
Procedure, shortened: as §1

DMPK (h) = molecular target: T6, DMPK (h) (Homo sapiens, UniProt Q09013)
T6 construct: purchased Millipore
T6 sequence (Q09013 1-629): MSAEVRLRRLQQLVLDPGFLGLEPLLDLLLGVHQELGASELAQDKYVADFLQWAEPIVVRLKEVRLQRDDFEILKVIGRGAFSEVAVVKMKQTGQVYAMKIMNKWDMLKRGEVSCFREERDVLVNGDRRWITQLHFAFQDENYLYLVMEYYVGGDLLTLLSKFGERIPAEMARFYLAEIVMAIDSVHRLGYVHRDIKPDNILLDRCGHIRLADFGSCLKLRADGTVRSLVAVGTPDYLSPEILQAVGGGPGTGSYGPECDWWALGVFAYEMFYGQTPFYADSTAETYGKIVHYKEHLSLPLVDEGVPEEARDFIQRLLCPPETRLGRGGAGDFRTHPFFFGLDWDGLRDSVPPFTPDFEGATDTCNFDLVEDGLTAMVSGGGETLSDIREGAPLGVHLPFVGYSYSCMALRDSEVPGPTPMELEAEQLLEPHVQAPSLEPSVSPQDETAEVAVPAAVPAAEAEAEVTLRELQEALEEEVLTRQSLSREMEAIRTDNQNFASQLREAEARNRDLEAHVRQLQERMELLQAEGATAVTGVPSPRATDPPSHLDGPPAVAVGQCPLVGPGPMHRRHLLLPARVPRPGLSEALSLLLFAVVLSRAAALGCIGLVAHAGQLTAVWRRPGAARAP
Procedure, shortened: as §1

Flt4 (h) = Flt4 (h) (Homo sapiens, UniProt P35916)
Procedure, shortened: as §1

Met(M1268T) (h) = Met(M1268T) (h) (Homo sapiens, UniProt P08581, M1250T)
Procedure, shortened: as §1

MuSK (h) = molecular target: T7, MuSK (h) (Homo sapiens, UniProt O15146)
T7 construct: purchased Millipore
T7 sequence (O15146 24-869): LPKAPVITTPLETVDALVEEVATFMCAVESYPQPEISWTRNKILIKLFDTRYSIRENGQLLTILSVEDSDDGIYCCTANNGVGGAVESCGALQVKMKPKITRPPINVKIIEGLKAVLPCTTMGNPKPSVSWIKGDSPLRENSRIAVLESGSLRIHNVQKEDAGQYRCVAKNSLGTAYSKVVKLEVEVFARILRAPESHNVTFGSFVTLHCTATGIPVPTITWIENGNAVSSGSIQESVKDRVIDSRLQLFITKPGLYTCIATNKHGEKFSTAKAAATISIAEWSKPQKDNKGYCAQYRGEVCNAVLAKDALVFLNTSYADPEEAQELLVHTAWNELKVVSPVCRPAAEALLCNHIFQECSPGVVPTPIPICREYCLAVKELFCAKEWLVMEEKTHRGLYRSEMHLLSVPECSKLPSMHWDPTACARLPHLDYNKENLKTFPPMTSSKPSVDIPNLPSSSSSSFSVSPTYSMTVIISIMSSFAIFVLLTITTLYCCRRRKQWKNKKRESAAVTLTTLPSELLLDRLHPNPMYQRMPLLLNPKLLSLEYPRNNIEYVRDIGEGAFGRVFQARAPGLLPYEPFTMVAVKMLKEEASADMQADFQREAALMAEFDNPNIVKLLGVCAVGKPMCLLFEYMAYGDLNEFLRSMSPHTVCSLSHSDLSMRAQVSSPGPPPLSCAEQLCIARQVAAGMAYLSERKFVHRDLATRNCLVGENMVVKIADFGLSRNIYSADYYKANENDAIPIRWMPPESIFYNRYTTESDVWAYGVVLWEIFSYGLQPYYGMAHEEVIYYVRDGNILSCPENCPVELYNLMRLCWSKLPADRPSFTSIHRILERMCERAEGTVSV
Procedure, shortened: as §1

NEK6 (h) = molecular target: T8, NEK6 (h) (Homo sapiens, UniProt Q9HC98)
T8 construct: purchased Millipore
Procedure, shortened: as §1

ROCK-II (h) = ROCK-II (h) (Homo sapiens, UniProt O75116)
Procedure, shortened: as §1

SAPK2a (h) = SAPK2a (h) (Homo sapiens, UniProt Q16539)
Procedure, shortened: as §1

Src(1-530) (h) = molecular target: T9, Src(1-530) (h) (Homo sapiens, UniProt P12931)
T9 construct: Src(1-530) (h)
Procedure, shortened: as §1

TrkA (h) = TrkA (h) (Homo sapiens, UniProt P04629)
Procedure, shortened: as §1

BTK (h) = BTK (h) (Homo sapiens, UniProt Q06187)
Procedure, shortened: as §1

TLK2 (h) = TLK2 (h) (Homo sapiens, UniProt Q86UE8)
Procedure, shortened: as §1

TLK2 (h), sequence (Q86UE8 whole entry): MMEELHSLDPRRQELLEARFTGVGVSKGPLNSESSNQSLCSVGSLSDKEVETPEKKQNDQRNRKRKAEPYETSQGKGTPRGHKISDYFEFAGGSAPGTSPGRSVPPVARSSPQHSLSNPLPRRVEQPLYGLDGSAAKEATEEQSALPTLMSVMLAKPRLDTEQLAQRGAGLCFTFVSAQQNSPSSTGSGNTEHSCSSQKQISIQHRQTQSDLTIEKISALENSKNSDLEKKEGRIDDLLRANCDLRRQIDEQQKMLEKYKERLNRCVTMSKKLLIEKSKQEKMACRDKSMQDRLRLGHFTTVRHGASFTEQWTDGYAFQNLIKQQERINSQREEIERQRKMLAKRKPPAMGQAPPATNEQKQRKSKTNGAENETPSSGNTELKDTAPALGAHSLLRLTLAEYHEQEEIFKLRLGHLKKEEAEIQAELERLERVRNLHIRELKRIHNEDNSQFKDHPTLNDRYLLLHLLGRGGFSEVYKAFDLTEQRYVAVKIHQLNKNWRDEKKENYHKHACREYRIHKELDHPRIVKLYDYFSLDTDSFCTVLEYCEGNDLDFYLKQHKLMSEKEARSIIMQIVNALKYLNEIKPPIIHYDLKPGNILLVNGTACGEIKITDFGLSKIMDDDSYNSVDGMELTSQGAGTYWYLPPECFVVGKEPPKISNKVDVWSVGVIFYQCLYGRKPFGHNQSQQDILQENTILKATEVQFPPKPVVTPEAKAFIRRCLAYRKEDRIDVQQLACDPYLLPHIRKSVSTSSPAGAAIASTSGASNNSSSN
T3 sequence (O96017 whole entry I157T): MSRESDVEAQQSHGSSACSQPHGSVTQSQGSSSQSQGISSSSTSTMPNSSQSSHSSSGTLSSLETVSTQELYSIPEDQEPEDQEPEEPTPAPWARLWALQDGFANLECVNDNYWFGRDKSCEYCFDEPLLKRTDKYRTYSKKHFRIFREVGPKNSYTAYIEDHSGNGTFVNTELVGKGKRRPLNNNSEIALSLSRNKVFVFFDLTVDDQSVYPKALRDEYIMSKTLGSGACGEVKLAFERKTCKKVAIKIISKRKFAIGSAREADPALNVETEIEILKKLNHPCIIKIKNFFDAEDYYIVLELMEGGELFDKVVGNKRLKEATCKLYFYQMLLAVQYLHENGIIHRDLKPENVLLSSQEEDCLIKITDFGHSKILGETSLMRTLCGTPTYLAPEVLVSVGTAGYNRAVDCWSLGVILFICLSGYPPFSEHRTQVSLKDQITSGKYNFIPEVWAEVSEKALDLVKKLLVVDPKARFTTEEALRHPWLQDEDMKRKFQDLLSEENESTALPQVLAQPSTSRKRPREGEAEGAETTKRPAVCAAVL
T5 sequence (P68400 whole entry): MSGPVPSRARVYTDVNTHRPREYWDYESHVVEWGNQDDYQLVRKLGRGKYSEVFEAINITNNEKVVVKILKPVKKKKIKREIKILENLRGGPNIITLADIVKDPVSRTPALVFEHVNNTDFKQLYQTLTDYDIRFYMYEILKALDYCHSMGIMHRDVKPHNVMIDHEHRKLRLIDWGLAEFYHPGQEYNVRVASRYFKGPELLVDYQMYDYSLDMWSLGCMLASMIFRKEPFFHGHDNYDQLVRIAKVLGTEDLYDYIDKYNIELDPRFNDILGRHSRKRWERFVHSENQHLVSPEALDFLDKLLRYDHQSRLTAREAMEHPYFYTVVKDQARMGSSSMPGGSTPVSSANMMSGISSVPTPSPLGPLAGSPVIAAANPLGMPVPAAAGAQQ
T5 sequence (P67870 whole entry partner): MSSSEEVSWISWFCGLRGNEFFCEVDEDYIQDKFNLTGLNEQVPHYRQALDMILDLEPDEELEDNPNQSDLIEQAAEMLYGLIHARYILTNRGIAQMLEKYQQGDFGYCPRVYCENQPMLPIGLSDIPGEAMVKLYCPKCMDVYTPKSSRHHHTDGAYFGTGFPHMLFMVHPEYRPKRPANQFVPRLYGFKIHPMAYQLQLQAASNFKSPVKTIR
T2 sequence (Q00534 whole entry): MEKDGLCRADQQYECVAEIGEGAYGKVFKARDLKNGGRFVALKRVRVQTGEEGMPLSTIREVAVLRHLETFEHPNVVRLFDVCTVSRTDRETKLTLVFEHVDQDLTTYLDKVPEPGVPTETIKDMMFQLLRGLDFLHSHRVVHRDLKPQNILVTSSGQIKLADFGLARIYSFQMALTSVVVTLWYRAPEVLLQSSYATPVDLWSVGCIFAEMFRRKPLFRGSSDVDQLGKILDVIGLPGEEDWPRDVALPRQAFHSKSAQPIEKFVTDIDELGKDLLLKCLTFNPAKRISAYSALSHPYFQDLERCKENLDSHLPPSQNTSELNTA
T2 sequence (P30281 whole entry partner): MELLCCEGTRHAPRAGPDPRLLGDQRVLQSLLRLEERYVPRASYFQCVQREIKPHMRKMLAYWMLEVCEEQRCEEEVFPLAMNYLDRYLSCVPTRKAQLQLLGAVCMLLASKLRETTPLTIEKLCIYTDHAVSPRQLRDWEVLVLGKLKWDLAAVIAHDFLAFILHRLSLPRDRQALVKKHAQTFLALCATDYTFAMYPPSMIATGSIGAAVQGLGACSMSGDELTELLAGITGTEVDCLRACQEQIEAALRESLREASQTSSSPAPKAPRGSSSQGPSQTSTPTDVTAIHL
Flt4 (h), sequence (P35916 25-1363): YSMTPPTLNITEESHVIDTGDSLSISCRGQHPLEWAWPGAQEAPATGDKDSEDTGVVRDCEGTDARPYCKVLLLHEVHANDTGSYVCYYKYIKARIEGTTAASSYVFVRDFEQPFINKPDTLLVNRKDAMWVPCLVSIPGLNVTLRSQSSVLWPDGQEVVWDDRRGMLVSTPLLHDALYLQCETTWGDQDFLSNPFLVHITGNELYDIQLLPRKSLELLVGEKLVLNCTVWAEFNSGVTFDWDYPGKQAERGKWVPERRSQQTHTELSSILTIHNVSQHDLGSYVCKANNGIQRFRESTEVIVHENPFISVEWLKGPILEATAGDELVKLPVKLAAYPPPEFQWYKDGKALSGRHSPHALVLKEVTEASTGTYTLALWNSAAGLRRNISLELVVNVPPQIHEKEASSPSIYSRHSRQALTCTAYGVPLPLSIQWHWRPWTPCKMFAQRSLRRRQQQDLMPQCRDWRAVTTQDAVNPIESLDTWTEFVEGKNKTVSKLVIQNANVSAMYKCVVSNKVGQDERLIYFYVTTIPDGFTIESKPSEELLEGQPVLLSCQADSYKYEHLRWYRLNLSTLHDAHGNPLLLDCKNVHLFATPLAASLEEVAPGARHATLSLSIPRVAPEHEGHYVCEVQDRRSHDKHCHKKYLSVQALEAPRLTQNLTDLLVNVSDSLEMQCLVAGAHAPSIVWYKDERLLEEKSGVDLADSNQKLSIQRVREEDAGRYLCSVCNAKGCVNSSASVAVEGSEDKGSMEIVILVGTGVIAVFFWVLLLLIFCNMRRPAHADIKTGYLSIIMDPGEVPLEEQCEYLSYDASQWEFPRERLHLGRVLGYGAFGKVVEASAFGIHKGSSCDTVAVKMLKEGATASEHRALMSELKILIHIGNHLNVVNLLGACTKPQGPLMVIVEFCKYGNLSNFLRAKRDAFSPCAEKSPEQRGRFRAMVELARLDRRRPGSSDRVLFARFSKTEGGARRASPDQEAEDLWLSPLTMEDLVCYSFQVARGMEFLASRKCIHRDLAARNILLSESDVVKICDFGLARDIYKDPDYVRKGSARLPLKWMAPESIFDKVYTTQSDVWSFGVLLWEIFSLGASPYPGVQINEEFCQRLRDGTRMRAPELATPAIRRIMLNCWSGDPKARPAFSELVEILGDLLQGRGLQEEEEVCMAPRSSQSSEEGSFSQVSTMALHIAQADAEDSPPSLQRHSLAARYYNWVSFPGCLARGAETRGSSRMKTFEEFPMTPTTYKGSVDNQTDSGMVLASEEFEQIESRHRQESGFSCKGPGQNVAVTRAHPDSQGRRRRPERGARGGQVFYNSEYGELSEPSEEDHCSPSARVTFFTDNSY
T4 sequence (O96017 whole entry R145W): as the sequence (O96017 whole entry I157T) above, with R145W, T157I counted along it
SAPK2a (h), sequence (Q16539 whole entry): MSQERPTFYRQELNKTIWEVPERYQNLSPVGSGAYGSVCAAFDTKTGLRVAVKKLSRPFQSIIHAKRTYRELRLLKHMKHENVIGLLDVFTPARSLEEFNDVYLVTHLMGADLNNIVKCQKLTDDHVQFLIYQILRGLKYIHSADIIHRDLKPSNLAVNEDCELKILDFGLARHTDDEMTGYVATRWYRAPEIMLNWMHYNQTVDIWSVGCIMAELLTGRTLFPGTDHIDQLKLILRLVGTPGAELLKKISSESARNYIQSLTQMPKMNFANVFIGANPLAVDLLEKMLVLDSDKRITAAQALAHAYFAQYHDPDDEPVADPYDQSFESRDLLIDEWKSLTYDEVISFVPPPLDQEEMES
BTK(R28H) (h), sequence (Q06187 whole entry R28H): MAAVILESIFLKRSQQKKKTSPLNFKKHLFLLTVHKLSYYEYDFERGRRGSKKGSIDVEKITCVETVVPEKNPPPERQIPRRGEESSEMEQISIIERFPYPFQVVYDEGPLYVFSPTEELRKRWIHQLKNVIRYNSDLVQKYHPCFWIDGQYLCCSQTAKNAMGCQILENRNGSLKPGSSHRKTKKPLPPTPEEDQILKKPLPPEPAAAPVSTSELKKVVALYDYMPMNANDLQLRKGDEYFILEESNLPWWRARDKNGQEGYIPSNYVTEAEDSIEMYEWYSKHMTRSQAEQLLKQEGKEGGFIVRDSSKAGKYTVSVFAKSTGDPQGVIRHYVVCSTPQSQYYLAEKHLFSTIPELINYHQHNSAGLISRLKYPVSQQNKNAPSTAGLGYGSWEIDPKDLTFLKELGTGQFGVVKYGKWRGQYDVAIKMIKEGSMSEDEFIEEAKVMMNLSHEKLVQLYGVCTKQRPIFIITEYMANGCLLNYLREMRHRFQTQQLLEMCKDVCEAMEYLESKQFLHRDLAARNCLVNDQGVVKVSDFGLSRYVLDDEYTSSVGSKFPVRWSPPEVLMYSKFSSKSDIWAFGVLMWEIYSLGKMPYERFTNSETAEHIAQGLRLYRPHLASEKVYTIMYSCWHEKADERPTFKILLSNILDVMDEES
BTK (h), sequence (Q06187 whole entry): as the sequence (Q06187 whole entry R28H) above, with H28R counted along it

## FAKLAARLYRKALARQLGVAA [MMI-0300]
BTK(R28H) (h)
  % activity: 74%
CDK2/cyclinA (h)
  % activity: 86%
CDK6/cyclinD3 (h)
  % activity: 86%
CHK2(I157T) (h)
  % activity: 43%
CHK2(R145W) (h)
  % activity: 33%
CK2 (h)
  % activity: 90%
DMPK (h)
  % activity: 59%
Flt4 (h)
  % activity: 83%
Met(M1268T) (h)
  % activity: 255%
MuSK (h)
  % activity: 93%
NEK6 (h)
  % activity: 82%
ROCK-II (h)
  % activity: 74%
SAPK2a (h)
  % activity: 90%
Src(1-530) (h)
  % activity: 23%
TrkA (h)
  % activity: 25%

## KAFAKLAARLYRKALARQLGVAA [MMI-0400]
BTK (h)
  % activity: 94%
BTK(R28H) (h)
  % activity: 24%
CDK2/cyclinA (h)
  % activity: 92%
CDK6/cyclinD3 (h)
  % activity: 85%
CHK2(I157T) (h)
  % activity: 41%
CHK2(R145W) (h)
  % activity: 31%
CK2 (h)
  % activity: 101%
DMPK (h)
  % activity: 54%
Flt4 (h)
  % activity: 89%
Met(M1268T) (h)
  % activity: 265%
MuSK (h)
  % activity: 93%
NEK6 (h)
  % activity: 85%
ROCK-II (h)
  % activity: 77%
SAPK2a (h)
  % activity: 85%
Src(1-530) (h)
  % activity: 19%
TLK2 (h)
  % activity: 151%
TrkA (h)
  % activity: 17%

## YARAAARQARAKALNRQLGVA (Mammalian) [MMI-0200]
BTK (h)
  % activity: 100%
CDK6/cyclinD3 (h)
  % activity: 100%
CHK2(I157T) (h)
  % activity: 85%
CHK2(R145W) (h)
  % activity: 81%
CK2 (h)
  % activity: 83%
DMPK (h)
  % activity: 66%
Met(M1268T) (h)
  % activity: 143%
NEK6 (h)
  % activity: 98%
ROCK-II (h)
  % activity: 85%
Src(1-530) (h)
  % activity: 75%
TLK2 (h)
  % activity: 129%

## HRRIKAWLKKIKALARQLGVAA (Mammalian) [MMI-0500]
BTK (h)
  % activity: 18%
BTK(R28H) (h)
  % activity: 10%
CDK2/cyclinA (h)
  % activity: 87%
CDK6/cyclinD3 (h)
  % activity: 23%
CHK2(I157T) (h)
  % activity: 3%
CHK2(R145W) (h)
  % activity: 3%
CK2 (h)
  % activity: 93%
DMPK (h)
  % activity: 12%
Flt4 (h)
  % activity: 73%
Met(M1268T) (h)
  % activity: 239%
MuSK (h)
  % activity: 27%
NEK6 (h)
  % activity: 49%
ROCK-II (h)
  % activity: 2%
SAPK2a (h)
  % activity: 52%
Src(1-530) (h)
  % activity: 21%
TLK2 (h)
  % activity: 133%
TrkA (h)
  % activity: 24%

From patent US10500249B2, “Compositions and methods for preventing or treating diseases, conditions, or processes characterized by aberrant fibroblast proliferation and extracellular matrix deposition” (MOERAE MATRIX, INC., priority 2014, dated 2019)
